Data taken from the Human Domainome abundance scans (Beltran et al. 2025).

B1: Protein maelstrom homolog, residues 3 to 71; numbered along this chain, Q96JY0 (parent)
chain: NRKASRNAYYFFVQEKIPELRRRGLPVARVADAIPYCSSDWALLREEEKEKYAEMAREWRAAQGKDPGP

Variants of: B1
Test: abundance fitness (aPCA) (normalised: wild type 0, dead -1); higher = more abundant; growth selection in yeast, the domain comes from the species named
Conditions: Homo sapiens

Abundance fitness, by site and new letter:
D40: V -0.036 | N -0.007 | G -0.856 | Y -0.48
I34: M 0.069 | L -0.17 | N -0.06 | W -0.04 | A -0.133 | R -0.148 | H -0.307 | K 0.406 | E -0.113 | S -0.229 | D 0.113 | T -0.19 | V -0.137 | C -0.203 | Q -0.25 | G -0.198 | F 0.091 | Y -0.064
R22: W -0.557 | V -0.738 | Y -0.583 | N -0.154 | P -0.763 | T -0.242 | S -0.046
E48: D 0.06
P26: R -0.431
S38: Q 0.155 | Y -0.06 | F -0.223 | L -0.132 | C -0.337 | G 0.193 | M -0.154 | R 0.171 | V 0.073
E54: W -0.299 | G -0.049 | S 0.107 | P -0.346 | Y -0.293 | K 0.027 | I 0.076 | F -0.396 | N -0.125 | Q -0.147 | C -0.161 | H -0.161 | L -0.13 | A -0.123 | T 0.212 | V -0.068 | D 0.133
V30: Q -0.567 | D -0.518 | H -0.17 | P 0.113 | N -0.559 | M -0.164 | S -0.238 | F -0.226 | G -0.607 | W -0.225 | K -0.514 | E -0.272 | I -0.652 | R -0.614 | C -0.174 | A -0.286 | Y -0.09
A33: Q -1.05 | D -0.62 | P -0.654 | K -0.714 | E -0.725 | F -0.808 | T -0.619 | V -0.541 | R -0.83 | M -0.707 | H -0.279 | W -0.665 | Y -0.713 | C -0.599 | G -0.098 | S -0.588 | L -0.47
K51: P -0.453 | R -0.378
W41: L -0.941 | N -0.706 | P -0.572 | F -0.284 | E -0.813 | R -0.572 | S -0.888 | A -0.553 | K -0.622 | V -0.682 | Y -0.394 | G -0.784 | T -0.682 | H -1.1 | Q -1.1 | I -0.968 | M -0.886
R23: H -0.467
L43: H 0.078 | S 0.094 | C -0.176 | I -0.16 | R 0.158 | P -0.477 | V 0.006 | A 0.106 | Y 0.086 | M -0.098 | F -0.473 | G 0.064 | T -0.108 | W -0.287 | E 0.102 | Q 0.151 | D 0.277 | N 0.252 | K -0.02
A56: C 0.027 | E -0.101 | F 0.124 | D -0.31
G24: S -0.773 | A -0.398 | D -0.311
L25: F -0.229
D32: R -0.596 | C -0.735 | S -0.817 | P -0.959 | L -1.05 | V -0.952 | K -0.869 | T -0.257 | W -1.07 | Y -1.09 | G -0.794 | A -0.421 | Q -0.616 | M -0.835 | F -0.956 | H -0.535 | E -0.055
R45: I -0.431 | A -0.001 | E -0.003 | G -0.111 | P 0.147 | C 0.016 | H -0.072 | D -0.219 | L -0.114 | Y -0.428 | V -0.151 | F -0.502 | Q 0.027 | M -0.057 | K -0.023 | N 0.108 | W -0.511
A31: Q -0.21 | K 0.161 | E 0.131 | I -0.603 | L -0.291 | Y -0.178 | C 0.085 | W -0.286 | P -0.019 | S -0.047 | V -0.1 | R -0.06 | G -0.099
R29: M -0.09 | S 0.221 | D 0.148 | W -0.47 | C 0.118 | G 0.052 | L -0.032 | F -0.478 | I 0.139 | E 0.275 | K 0.178 | Y -0.101 | N 0.105 | H -0.113 | V 0.049 | P -1.09 | Q 0.041
P35: A -0.435 | I -0.524 | V -0.78 | H 0.058 | D -0.181 | Y -1.07 | N -0.266 | F -0.862 | M -0.18 | E -0.289 | T -0.554 | G -0.224 | L -0.713 | W -0.756 | S -0.628 | Q -0.451 | K 0.049
A53: Q -0.194 | N -0.144 | G -0.106 | E 0.13 | P -0.589 | W -0.097 | T -0.15 | S 0.082 | I -0.263 | V -0.006 | K -0.226 | H 0.037 | Y 0.265 | D -0.082 | R 0.035 | M -0.322 | C 0.043
A42: P -0.326 | C -0.177 | F -0.081 | G 0.058 | R -0.059 | I -0.234 | D 0.015 | L -0.082 | M -0.083 | K 0.016 | S 0 | W -0.236 | H -0.03 | Y -0.101 | N 0.157 | Q -0.147 | E 0.005
A28: M -0.319 | S -0.324
S39: Y 0.041 | Q 0 | H 0.109 | V -0.164 | F -0.016 | T 0.132 | P 0.093 | E -0.073 | L -0.137 | D 0.07 | C -0.174 | W 0.022 | G 0.13 | A -0.058 | M 0.129
V27: K -0.744 | R -0.742 | W -0.584 | M -0.511 | F -0.159 | D -0.738 | S -0.104 | N -0.02 | G -0.594 | E -0.831 | Q -1.08 | L -0.329 | I -0.319 | C -0.026 | P -0.73 | T -0.235
E50: D -0.232
E46: I -0.315 | N -0.09 | L -0.139 | R -0.14 | K 0.012 | T -0.188 | D -0.266 | V -0.38 | G -0.031 | F -0.215 | A -0.23 | P 0.066 | M -0.134 | C -0.046 | Y -0.339 | H -0.101
C37: R -0.731 | Q -0.636 | L -0.244 | S -0.561 | V -0.137 | G -0.557 | T -0.434 | I -0.229 | E -0.636 | K -0.719 | F -0.55 | M -0.291 | A -0.19 | Y -0.741
L44: M -0.38 | Y -1.09 | H -1 | Q -0.168 | K -0.568 | P -0.751 | E -0.421 | R -0.802 | S -0.205 | D -0.553 | F -0.443 | G -0.864 | C -0.343 | I -0.482 | V -0.156 | A -0.254 | T -0.227
